According to US20210030885A1, “HUMANIZED ANTI-LIV1 ANTIBODIES FOR THE TREATMENT OF CANCER” (priority 2019, published 2021):
Marks after values point to notes of the source that are not given here.

Columns and labels:
[1] = Observed pharmacokinetics of ADC and MMAE after LV Q1W or Q3W dosing; assay type: in vivo, human
Experimental: To investigate if fractionated dosing could increase treatment efficacy or reduce the number and severity of adverse events, various fractionated dosing schemes of ladiratuzumab vedotin (LV) were tested to measure for changes in Cmax, Ctrough, and AUC at similar total dose intensities and exposure.
Breast cancer patients were treated with (LV).
LV was administered as 30-minute IV infusion at the indicated interval. […]

[2] = Chemical and physical stability of the reconstituted drug product; assay type: physicochemical; conditions: at 2-8° C. and at room temperature
Experimental: When reconstituted with 8.8 mL Water for Injection (WFI), US Pharmacopeia (USP), the concentration of reconstituted LV product is 5 mg/mL. The reconstituted drug product is a clear to slightly opalescent, colorless to light yellow solution with no visible particulate matter. The pH is approximately 6.0. The reconstituted solution is subsequently diluted in sterile 0.9% Sodium Chloride for Injection, USP, for IV administration.
If not used immediately, the in-use storage should not be longer than 24 hours under refrigeration at 2-8° C. The prepared dosing solution (reconstituted drug product solution and saline dilution in an IV bag or polypropylene syringe) should be administered within 8 hours after exposing to ambient temperature and light condition.

patients = experiment: Adverse event incidence with previous LV dosing regimen 2.5 mg/kg Q3W; assay type: in vivo, human; conditions: n = 65
[3] = Drug to antibody ratio (DAR) of ADC in blood samples after LV administration, Q3W; assay type: in vivo, human; conditions: Q3W dosing
Experimental: In order to investigate pharmacokinetics of ADC species with different DARs under the previous tri-weekly dosing scheme (Q3W) versus a weekly dosing scheme (Q1W), LV was administered to subjects accordingly, and the pharmacokinetics of ADC species with different DARs were simulated.
Breast cancer patients were treated with ladiratuzumab vedotin (LV).
LV was administered by 30 minute intravenous (IV) infusion under a Q3W interval.
Following administration of LV, subject blood samples were collected at pre-dose, end of infusion, 2 hrs, 4 hrs, 8 hrs, 1 day, 3 days, 7 days, and 14 days after administration. The concentrations of the antibody-drug conjugate (ADC) was measured, and the drug to antibody ratio (DAR) of each species (DAR8, DAR7, DAR6, DARS, DAR4, DAR3, DAR2, DAR1 and DAR0) of the ADCs collected in blood samples was also analyzed. […] Using computer-assisted modeling, where decrease in average DAR was established previously, i.e. from 4 (on Day 0) to 1 (on Day 7) under Q3W, the pharmacokinetics were simulated for (i) ADCs with DARs≥4, or (ii) ADCs with DAR of between 2 and 3 (FIGS. 3B, C respectively) when LV was administered at a dose of 1 mg/kg on Day 1 of each 7-day cycle (Q1W) or at a dose of 3 mg/kg on Day 1 of each 21-day cycle (Q3W). […]

[4] = MMAE, LV 1.0 mg/kg weekly (obs.), n = 4, geometric mean (CV %)
[5] = MMAE, LV 2.5 mg/kg q3wk (obs.), geometric mean (CV %)

With ladiratuzumab vedotin [LV] the AUC0-21 ([1]; ADC, 1.0 mg/kg weekly (obs.), n = 4, estimated from observed AUC0-7 d of Cycle 1 Dose #1 and Dose #3) was 215.4* μg*day/mL, the Cmax ([1]; ADC, 1.0 mg/kg weekly (obs.), n = 4, geo. mean (CV %)) was 31.4 (25) μg/mL and the Ctrough ([1]; ADC, 1.25 mg/kg weekly (obs.), n = 1) was 7.64 µg/mL. For the same substance, the AUC0-21 ([1]; ADC, 1.25 mg/kg weekly (obs.), n = 5, estimated from observed AUC0-7 d of Cycle 1 Dose #1 and Dose #3) was 266.9* μg*day/mL, the Cmax ([1]; ADC, 1.25 mg/kg weekly (obs.), n = 5, geo. mean (CV %)) was 43.3 (31) μg/mL and the AUC0-21 ([1]; ADC, 2.5 mg/kg q3wk (obs.), n = 97, geo. mean (CV %)) was 210 (27) μg*day/mL. For the same substance, the Cmax ([1]; ADC, 2.5 mg/kg q3wk (obs.), n = 131, geo. mean (CV %)) was 85 (27) μg/mL, the AUC0-21 ([1]; MMAE, LV 1.0 mg/kg weekly (obs.), n = 4, estimated from observed AUC0-7 d of Cycle 1 Dose #1 and Dose #3) was 29.7* μg*day/mL and the Cmax [1, 4] was 2.1 (61) μg/mL. For the same substance, the Ctrough [1, 4] was 1.26(75) μg/mL, the Ctrough ([1]; MMAE, LV 1.25 mg/kg weekly (obs.), n = 2, geometric mean (CV %)) was 2.95(160) μg/mL and the AUC0-21 ([1]; MMAE, LV 1.25 mg/kg weekly (obs.), n = 5, estimated from observed AUC0-7 d of Cycle 1 Dose #1 and Dose #3) was 53.6* μg*day/mL. The Cmax ([1]; MMAE, LV 1.25 mg/kg weekly (obs.), n = 5, geometric mean (CV %)) was 3.74 (68) μg/mL, the AUC0-21 [1, 5] was 50.3 (61) μg*day/mL and the Cmax [1, 5] was 5.55 (56) μg/mL. For the same substance, the Ctrough [1, 5] was 0.34 (80) μg/mL, the “Chemical and physical stability of the reconstituted drug product demonstrated for” value [2] was 24 h and the “Adverse event incidence: Abdominal Pain” value (patients) was 18 (28%). The “Adverse event incidence: Alopecia” value (patients) was 22 (34%), the “Adverse event incidence: Constipation” value (patients) was 32 (49%) and the “Adverse event incidence: Decreased Appetite” value (patients) was 29 (45%). The “Adverse event incidence: Diarrhea” value (patients) was 23 (35%), the “Adverse event incidence: Fatigue” value (patients) was 38 (59%) and the “Adverse event incidence: Hypokalemia” value (patients) was 17 (26%). The “Adverse event incidence: Nausea” value (patients) was 32 (49%), the “Adverse event incidence: Neutropenia” value (patients) was 19 (29%) and the “Adverse event incidence: Peripheral Sensory Neuropathy” value (patients) was 21 (32%). For the same substance, the “Adverse event incidence: Vomiting” value (patients) was 14 (22%), the “DAR of ADCs in blood” value ([3]; Day 0) was “about 4” and the “DAR of ADCs in blood” value ([3]; Day 7) was “about 1”.
